Laboratory results reported in the supplement of paper PMC10065799, “High-throughput profiling of sequence recognition by tyrosine kinases and SH2 domains using bacterial peptide display” (eLife, 2023).

How the values were obtained:
[1] = biological target: Fes (UniProt P07332); experiment: phosphorylation enrichment, bacterial display (enrichment ratio); higher = better substrate or ligand; peptides without Tyr show the background
[2] = biological target: MERTK (UniProt Q12866); experiment: as above
[3] = tested on: c-Abl (mouse); experiment: as above
[4] = biological target: FGFR3 (UniProt P22607); experiment: as above
[5] = biological target: EPHB2 (UniProt P29323); experiment: as above
[6] = biological target: EPHB1 (UniProt P54762); experiment: as above
[7] = biological target: Fyn (UniProt P06241); experiment: as above
[8] = biological target: FGFR1 (UniProt P11362); experiment: as above
[9] = biological target: Hck (UniProt P08631); experiment: as above
[10] = biological target: Jak2 (UniProt O60674); experiment: as above
[11] = tested on: Fer (mouse); experiment: as above
[12] = tested on: AncSZ; experiment: as above
[13] = tested on: c-Src; experiment: as above
[14] = biological target: c-Src SH2; experiment: SH2 binding enrichment of the phosphorylated peptide, bacterial display (enrichment ratio); higher = better substrate or ligand; peptides without Tyr show the background
[15] = biological target: SHP2-C SH2; experiment: as above
[16] = biological target: Grb2 SH2 (UniProt P62993); experiment: as above
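Throughout, for SH2 binding enrichment of the phosphorylated peptide, bacterial display: peptide library displayed on the E. coli surface as eCPX fusions, selected cells deep-sequenced, score is each peptide's frequency after selection divided by its frequency in the input.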
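Throughout, for phosphorylation enrichment, bacterial display: 11-residue human phosphosite peptides and single-mutation variants displayed on the E. coli surface, counted by deep sequencing, each peptide's frequency after selection divided by its frequency in the unselected input library; frequency after pTyr selection over input frequency; kinase dosed for 20-30% of maximal phosphorylation in three min.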

Sequence of EPHB1 (P54762 whole entry, looked up): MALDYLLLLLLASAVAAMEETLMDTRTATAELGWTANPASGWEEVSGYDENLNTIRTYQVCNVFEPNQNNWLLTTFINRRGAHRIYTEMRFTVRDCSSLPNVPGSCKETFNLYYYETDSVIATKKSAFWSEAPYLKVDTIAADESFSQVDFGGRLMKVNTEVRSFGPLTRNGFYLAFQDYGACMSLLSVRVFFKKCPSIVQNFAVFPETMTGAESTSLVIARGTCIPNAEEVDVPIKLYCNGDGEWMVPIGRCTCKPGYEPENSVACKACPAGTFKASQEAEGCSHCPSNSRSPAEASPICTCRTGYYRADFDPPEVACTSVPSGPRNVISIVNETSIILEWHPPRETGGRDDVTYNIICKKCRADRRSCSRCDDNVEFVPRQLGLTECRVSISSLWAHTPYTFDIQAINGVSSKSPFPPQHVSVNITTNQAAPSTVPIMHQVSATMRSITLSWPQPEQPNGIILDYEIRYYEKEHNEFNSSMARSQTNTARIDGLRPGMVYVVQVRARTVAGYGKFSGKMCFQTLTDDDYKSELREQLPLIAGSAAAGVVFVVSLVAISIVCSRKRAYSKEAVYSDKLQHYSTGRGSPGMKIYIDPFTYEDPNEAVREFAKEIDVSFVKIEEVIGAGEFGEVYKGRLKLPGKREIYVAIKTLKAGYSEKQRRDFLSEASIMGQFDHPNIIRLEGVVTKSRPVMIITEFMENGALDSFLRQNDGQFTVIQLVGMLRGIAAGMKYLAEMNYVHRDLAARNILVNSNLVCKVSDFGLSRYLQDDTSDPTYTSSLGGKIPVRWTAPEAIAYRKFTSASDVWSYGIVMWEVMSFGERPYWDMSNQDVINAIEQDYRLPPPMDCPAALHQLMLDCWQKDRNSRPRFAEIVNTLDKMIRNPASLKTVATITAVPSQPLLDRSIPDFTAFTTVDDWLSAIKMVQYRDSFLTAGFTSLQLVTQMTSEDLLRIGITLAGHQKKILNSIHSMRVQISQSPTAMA
Sequence of FGFR1 (P11362 whole entry, looked up): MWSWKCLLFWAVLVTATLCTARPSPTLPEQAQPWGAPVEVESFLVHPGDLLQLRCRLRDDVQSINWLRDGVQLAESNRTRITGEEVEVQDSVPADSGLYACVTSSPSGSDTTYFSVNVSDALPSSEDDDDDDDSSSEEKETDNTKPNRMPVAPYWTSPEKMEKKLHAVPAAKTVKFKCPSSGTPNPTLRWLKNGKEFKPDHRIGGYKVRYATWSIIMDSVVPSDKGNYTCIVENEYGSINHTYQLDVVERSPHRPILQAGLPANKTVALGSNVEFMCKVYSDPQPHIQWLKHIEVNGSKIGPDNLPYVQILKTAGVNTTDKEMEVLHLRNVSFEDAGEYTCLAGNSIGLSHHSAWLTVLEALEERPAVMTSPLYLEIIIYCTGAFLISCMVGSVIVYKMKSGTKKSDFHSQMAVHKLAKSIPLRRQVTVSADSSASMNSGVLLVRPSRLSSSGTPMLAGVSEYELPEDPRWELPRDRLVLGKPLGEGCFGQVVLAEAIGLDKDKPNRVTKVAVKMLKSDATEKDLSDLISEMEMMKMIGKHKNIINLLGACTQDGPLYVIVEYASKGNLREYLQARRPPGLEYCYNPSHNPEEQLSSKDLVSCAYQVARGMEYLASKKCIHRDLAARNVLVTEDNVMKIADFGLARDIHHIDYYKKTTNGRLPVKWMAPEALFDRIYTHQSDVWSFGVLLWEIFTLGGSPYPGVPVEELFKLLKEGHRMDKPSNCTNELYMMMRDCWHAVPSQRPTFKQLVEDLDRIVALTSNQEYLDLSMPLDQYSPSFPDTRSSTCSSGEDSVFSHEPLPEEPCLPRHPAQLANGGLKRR
Sequence of Jak2 (O60674 whole entry, looked up): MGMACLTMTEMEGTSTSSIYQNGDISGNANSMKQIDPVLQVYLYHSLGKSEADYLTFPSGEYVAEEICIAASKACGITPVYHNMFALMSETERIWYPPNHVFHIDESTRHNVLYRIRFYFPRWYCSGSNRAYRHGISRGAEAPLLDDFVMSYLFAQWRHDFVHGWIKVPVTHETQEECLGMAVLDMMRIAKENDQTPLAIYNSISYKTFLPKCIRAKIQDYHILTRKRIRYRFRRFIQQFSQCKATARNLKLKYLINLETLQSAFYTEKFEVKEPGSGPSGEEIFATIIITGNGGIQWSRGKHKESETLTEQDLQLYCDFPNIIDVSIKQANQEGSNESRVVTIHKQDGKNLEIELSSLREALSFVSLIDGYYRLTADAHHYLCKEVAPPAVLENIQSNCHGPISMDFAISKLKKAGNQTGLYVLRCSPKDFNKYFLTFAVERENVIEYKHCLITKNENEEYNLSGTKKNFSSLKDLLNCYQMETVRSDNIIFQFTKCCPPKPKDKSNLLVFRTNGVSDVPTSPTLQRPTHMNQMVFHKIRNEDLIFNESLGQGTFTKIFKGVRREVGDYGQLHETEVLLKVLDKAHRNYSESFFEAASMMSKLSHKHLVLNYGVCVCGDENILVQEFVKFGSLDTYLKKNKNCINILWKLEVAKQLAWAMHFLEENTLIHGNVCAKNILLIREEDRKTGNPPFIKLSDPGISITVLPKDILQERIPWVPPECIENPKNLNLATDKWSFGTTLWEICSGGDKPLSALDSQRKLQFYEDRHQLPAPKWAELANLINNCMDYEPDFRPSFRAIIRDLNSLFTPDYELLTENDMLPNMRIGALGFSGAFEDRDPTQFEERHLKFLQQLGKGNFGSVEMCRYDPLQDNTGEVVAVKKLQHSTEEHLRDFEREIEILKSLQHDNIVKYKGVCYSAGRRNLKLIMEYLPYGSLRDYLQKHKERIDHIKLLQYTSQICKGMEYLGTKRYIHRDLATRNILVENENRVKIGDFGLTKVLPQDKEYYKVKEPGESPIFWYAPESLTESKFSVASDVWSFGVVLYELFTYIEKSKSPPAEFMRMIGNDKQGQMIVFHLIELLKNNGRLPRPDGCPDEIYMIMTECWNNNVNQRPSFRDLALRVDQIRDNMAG
Sequence of Fes (P07332 whole entry, looked up): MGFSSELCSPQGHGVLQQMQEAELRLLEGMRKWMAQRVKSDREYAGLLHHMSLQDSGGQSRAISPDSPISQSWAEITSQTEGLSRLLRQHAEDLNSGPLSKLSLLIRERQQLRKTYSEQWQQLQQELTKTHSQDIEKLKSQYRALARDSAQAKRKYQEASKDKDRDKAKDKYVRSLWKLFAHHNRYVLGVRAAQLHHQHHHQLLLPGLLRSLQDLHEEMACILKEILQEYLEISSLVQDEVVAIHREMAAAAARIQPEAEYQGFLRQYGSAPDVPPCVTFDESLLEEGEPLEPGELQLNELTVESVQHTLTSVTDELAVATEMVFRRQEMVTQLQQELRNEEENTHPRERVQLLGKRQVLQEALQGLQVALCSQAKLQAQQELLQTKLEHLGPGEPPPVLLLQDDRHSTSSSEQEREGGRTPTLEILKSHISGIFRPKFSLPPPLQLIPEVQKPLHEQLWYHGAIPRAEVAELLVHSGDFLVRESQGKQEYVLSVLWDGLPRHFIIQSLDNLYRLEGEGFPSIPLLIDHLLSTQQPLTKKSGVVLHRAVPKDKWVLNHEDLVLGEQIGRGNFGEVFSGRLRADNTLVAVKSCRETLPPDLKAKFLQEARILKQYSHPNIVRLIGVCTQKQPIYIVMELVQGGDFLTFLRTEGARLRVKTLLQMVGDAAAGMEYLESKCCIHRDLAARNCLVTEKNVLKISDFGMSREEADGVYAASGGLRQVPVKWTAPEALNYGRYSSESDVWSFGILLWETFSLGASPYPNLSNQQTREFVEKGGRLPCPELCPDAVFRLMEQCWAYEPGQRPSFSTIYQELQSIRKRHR
Sequence of FGFR3 (P22607 whole entry, looked up): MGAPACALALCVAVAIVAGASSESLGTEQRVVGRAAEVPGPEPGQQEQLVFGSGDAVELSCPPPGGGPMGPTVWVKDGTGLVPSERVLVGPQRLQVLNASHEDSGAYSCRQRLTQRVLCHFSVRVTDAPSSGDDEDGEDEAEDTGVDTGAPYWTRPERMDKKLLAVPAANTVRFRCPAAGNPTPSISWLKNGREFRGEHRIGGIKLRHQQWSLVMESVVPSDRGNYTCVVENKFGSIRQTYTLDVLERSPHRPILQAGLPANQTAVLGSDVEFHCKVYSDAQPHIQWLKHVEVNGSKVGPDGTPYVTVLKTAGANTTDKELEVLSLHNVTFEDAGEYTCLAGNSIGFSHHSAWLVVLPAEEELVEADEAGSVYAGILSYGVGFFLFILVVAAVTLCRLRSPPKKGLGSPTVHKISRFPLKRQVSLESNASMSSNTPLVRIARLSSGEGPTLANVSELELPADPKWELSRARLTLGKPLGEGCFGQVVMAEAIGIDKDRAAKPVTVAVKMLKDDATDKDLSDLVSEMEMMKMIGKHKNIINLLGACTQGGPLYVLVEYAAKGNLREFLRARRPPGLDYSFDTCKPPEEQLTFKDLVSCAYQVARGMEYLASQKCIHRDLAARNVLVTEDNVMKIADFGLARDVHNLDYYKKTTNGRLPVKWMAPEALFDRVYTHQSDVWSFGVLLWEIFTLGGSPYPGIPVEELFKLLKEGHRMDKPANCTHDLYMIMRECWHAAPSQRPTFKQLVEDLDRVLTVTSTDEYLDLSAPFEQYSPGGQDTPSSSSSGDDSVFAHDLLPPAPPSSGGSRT
Sequence of Hck (P08631 whole entry, looked up): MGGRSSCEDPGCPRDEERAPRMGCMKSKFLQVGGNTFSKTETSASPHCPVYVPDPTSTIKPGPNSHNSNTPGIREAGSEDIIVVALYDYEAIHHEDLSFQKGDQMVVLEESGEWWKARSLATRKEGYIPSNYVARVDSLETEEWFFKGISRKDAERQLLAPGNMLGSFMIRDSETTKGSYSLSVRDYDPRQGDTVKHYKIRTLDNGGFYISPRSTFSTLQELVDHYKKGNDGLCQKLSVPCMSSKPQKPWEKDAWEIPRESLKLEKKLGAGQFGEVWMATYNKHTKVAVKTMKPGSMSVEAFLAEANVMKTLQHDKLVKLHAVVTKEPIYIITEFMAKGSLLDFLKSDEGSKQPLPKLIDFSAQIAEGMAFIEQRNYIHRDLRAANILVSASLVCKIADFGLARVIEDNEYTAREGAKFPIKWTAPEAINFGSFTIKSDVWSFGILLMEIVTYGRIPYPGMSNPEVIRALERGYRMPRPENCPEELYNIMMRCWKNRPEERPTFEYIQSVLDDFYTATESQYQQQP

Row | Sequence | SH2 binding enrichment [14] | SH2 binding enrichment [15] | SH2 binding enrichment [16] | phosphorylation enrichment [1] | phosphorylation enrichment [2] | phosphorylation enrichment [3] | phosphorylation enrichment [4] | phosphorylation enrichment [5] | phosphorylation enrichment [6] | phosphorylation enrichment [7] | phosphorylation enrichment [8] | phosphorylation enrichment [9] | phosphorylation enrichment [10] | phosphorylation enrichment [11] | phosphorylation enrichment [12] | phosphorylation enrichment [13]
1 | YEEDSYSHVMA [FDPS_Y388_I391V] | 2.64 | 0.69 | 0.772 | 1.17 | 0.464 | 0.696 | 1.27 | 0.65 | 0.59 | 0.775 | 1.22 | 0.606 | 0.944 | 1.64 | 1.87 | 0.587
2 | YEKFLYFLPAS [DYNC2H1_Y346_H341Y] | 2.21 | 1.19 | 1.05 | 1.31 | 2.16 | 0.89 | 0.91 | 0.644 | 0.764 | 0.868 | 0.57 | 0.827 | 2.7 | 0.581 | 1.5 | 0.938
3 | YFVVEYRDQKP [MUC17_Y4332] | 3.98 | 5.95 | 1.17 | 1.66 | 4.97 | 0.788 | 12.1 | 0.909 | 1.23 | 0.786 | 13.8 | 0.589 | 3.02 | 0.75 | 2.1 | 0.728
4 | YLENYYDLEKD [MMP3_Y42_K45E] | 0.985 | 0.557 | 0.769 | 1.47 | 0.752 | 0.957 | 5.26 | 3.24 | 5.81 | 4.51 | 7.06 | 1.63 | 1.15 | 0.781 | 1.76 | 2.29
5 | YMRGMYFRMKD [PLA2G6_Y541] | 1.3 | 1.5 | 1.59 | 0.947 | 0.439 | 0.657 | 0.589 | 0.523 | 0.42 | 0.416 | 0.462 | 0.44 | 1.16 | 0.423 | 0.924 | 0.384

Further lines, with some results ahead:

Row | SH2 binding enrichment [14] | SH2 binding enrichment [15] | SH2 binding enrichment [16] | Sequence | phosphorylation enrichment [1] | phosphorylation enrichment [2] | phosphorylation enrichment [3] | phosphorylation enrichment [4] | phosphorylation enrichment [5] | phosphorylation enrichment [6] | phosphorylation enrichment [7] | phosphorylation enrichment [8] | phosphorylation enrichment [9] | phosphorylation enrichment [10] | phosphorylation enrichment [11] | phosphorylation enrichment [12] | phosphorylation enrichment [13]
6 | 8.91 | 1.14 | 32.9 | YENGEYIVRQG [PRKG1_Y247_I249V] | 0.937 | 0.424 | 0.582 | 0.729 | 0.464 | 0.543 | 0.494 | 0.495 | 0.495 | 0.784 | 0.483 | 1.02 | 0.466
7 | 0.606 | 0.765 | 0.875 | YPPTHYIRRMP [SLC4A11_Y820_V824M] | 0.597 | 0.447 | 0.484 | 0.493 | 0.412 | 0.455 | 0.397 | 0.451 | 0.339 | 0.4 | 0.59 | 0.717 | 0.381
8 | 2.93 | 0.527 | 0.781 | YQEPVYSVAFS [TBL1X_Y509_H504Y] | 4.74 | 12.7 | 29.6 | 5.72 | 26.2 | 18.9 | 12.4 | 6.72 | 11.1 | 0.989 | 17.5 | 5.95 | 8.72
9 | 2.8 | 10.8 | 0.986 | YSSLGYPLPEG [ZSWIM4_Y87_P89L] | 0.904 | 7.91 | 0.978 | 1.06 | 0.758 | 0.53 | 2.63 | 1.28 | 2.05 | 0.785 | 0.687 | 1.01 | 1.57
10 | 2.02 | 0.494 | 0.822 | YTDPYYDYEIE [ZC3H18_Y372_A368T] | 1.27 | 1.31 | 0.871 | 7.56 | 1.06 | 1.39 | 1.96 | 9.65 | 0.967 | 1.31 | 1.22 | 2.13 | 2.94
11 | 6.95 | 2.47 | 1 | YTTIHYNYMCN [TP53_Y234_C229Y] | 1.16 | 4.13 | 0.92 | 3.35 | 0.897 | 1.81 | 0.976 | 4.5 | 0.917 | 1.26 | 2.08 | 1.43 | 1.27
